Article doi:10.1101/794511

T1: E47 bHLH fragment (Mus musculus, UniProt P15806-2 430-648)
T1 sequence: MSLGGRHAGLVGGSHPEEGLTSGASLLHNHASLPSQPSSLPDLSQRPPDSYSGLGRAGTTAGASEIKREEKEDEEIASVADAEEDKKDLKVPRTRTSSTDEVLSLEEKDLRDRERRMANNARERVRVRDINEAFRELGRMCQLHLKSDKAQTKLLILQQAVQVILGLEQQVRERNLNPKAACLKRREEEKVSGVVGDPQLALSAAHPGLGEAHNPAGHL

B1: Ac-Luc E2 (dsDNA)
DNA 1: CACCAACAGCTGCGTTTTTAGTGCGGGCGTGGCT
DNA 2: AGCCACGCCCGCACTAAAAACGCAGCTGTTGGTG
B2: Gsx2_site (dsDNA)
DNA 1: CAGAGTGTAATTAACATTCAGTAGTGCGGGCGTGGCT
DNA 2: AGCCACGCCCGCACTACTGAATGTTAATTACACTCTG

Assays:
Experiment in all cases: EMSA
E47 bHLH fragment = biological target: T1, E47 bHLH fragment
[1] = biological target: Gsx2 N253A homeodomain fragment (Mus musculus, UniProt P31316 167-305, N253A)
[2] = biological target: Gsx2 homeodomain fragment (Mus musculus, UniProt P31316 167-305)
Sequence of Gsx2 homeodomain fragment (P31316 167-305): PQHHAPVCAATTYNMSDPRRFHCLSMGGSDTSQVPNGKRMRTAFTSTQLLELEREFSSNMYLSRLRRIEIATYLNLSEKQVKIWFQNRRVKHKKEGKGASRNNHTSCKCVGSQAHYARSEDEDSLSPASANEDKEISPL

Sequence of Gsx2 N253A homeodomain fragment (P31316 167-305 N253A): as the sequence (P31316 167-305) above, with N87A counted along it

Row | Binder | binding result (E47 bHLH fragment) | binding result [1] | binding result [2]
1 | B1 | binds | – | –
2 | B2 | – | no binding | binds
